Measurements taken from patent US20260317413 (published 2026).
Like-named read-outs stand apart in the source and are kept apart here.

What was measured:
alpha-cobratoxin [1] = target: T1, alpha-cobratoxin (Naja kaouthia, UniProt P01391); assay: BLI
T1 chain: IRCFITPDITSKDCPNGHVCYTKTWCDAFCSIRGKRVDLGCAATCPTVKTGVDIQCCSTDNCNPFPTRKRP

alpha-cobratoxin [2] = target: T1, alpha-cobratoxin; assay: BLI
alpha-cobratoxin [3] = target: T1, alpha-cobratoxin; assay: SPR
alpha-cobratoxin [4] = target: T1, alpha-cobratoxin; assay: BLI
alpha-bungarotoxin [5] = target: T2, alpha-bungarotoxin (Bungarus multicinctus, UniProt P60615); assay: BLI
alpha-bungarotoxin [6] = target: T2, alpha-bungarotoxin; assay: BLI; remark: listed apart in the source
alpha-cobratoxin [7] = target: T1, alpha-cobratoxin; assay: SPR
alpha-cobratoxin [8] = target: T1, alpha-cobratoxin; assay: BLI

T2 sequence (P60615 22-95): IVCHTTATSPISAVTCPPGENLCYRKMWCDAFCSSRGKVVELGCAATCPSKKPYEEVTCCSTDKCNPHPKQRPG

B1: 2554_01_D11 (antibody, V domains shown)
VH: QVQLVQSGAEVKKPGSSVKVSCKASGGTFSSYAISWVRQAPGQGLEWMGGIIPIFGTANYAQKFQGRVTITADESTSTAYMELRSLRSDDTAVYYCARDNLGYCSGGSCYSDYYYYYMDVWGQGTLVTVSS
VL: SNFMLTQPRSVSESPGKTVTISCTRSSGSIGSDYVHWYQQRPGSSPTTVIYEDNQRPSGVPDRFSGSIDSSSNSASLTISGLKTEDEADYYCQSYDRSNHEVVFGGGTKLTVL
Kd (alpha-cobratoxin [1]): 2.91 nM
koff (alpha-cobratoxin [2]): 0.000327 s⁻¹
Kd (alpha-cobratoxin [3]): 2.3 nM
Kd (alpha-cobratoxin [4]): 2.9 nM
Kd (alpha-bungarotoxin [5]): 122 nM
koff (alpha-bungarotoxin [6]): 0.00388 s⁻¹
Kd (alpha-cobratoxin [7]): 10.4 nM
koff (alpha-cobratoxin [8]): 0.000396 s⁻¹
